Earlier results in patent US12539328B2, “Oral vaccine via dental bacteria and emitted peptides to prevent COVID-19 infection” (priority 2021, dated 2026).

Test system: SARS-CoV-2 infection of Vero E6 cells
Conditions: first approach, built around an ACE2 helix; read-out: IC50 of SARS-CoV-2 neutralization

B1: AHB2 (protein)
chain: ELEEQVMHVLDQVSELAHELLHKLTGEELERAAYFNWWATEMMLELIKSDDEREIREIEEEARRILEHLEELARK
For B1, the IC50 is listed as 15.5 nM.

B2: AHB1 (protein)
chain: DEDLEELERLYRKAEEVAKEAKDASRRGDDERAKEQMERAMRLDQVFELAQELQEKQTDGNRQKATHLDKAVKEAADELYQRVR
In the case of B2, the IC50 is given as 35 nM.
